± gives the uncertainty stated by the source.
Assay: amyloid nucleation score (Sup35N fusion, yeast selection) (log enrichment); library NNK2; higher = more nucleation; inactive = no reads after selection
Summary of the method: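 Yeast lacking psi expressed peptides of 20 random codons fused to Sup35N, received 100 μM copper sulfate for 24 hours, and were then grown for 7 days at 30°C on medium lacking adenine and uracil. Illumina sequencing of input and output plasmid inserts provided the reads. Nucleation scores are DiMSum log enrichments of output over input, centred on the mode of non-aggregating sequences. Any sequence with under 100 input reads was excluded.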

Row | Substance | amyloid nucleation score
1 | KRFGLVCVIQQAQKWVNGTG | 0.179 ± 0.51
2 | IDSSGEYIVLRGYMYMRFRL | -0.72 ± 0.4
3 | MFRGVQN | 0.899 ± 0.53
4 | IAACLFYNRSVNIFTGVDGL | 4.09 ± 0.14
5 | SILNDESFILLDILMVHFEY | -0.547 ± 0.35
6 | ERFHIVLHMVIDDRVSFGCV | 2.96 ± 0.12
7 | FYKTLCKLGWAPWS | -0.744 ± 0.32
8 | CHKSACCKILVDDIALFN | -0.419 ± 0.32
9 | SFGYPPVCLLFSHLHRRFLL | 0.237 ± 1
10 | RALVYVWACSVLLDNCTSRH | -0.935 ± 1.1
11 | GMRVMVLFDFLYYRCLENLL | -0.632 ± 1.1
12 | CQMYYFYFNLLMWDMA | inactive
13 | CIRRESCIRICGGDCVCHRA | 2.97 ± 0.091
14 | CTTSWKMSCKFALGN | 4.04 ± 0.07
15 | RNESHVNLLGFMLDRRPDRG | 4.37 ± 0.071
16 | FVKGS | inactive
17 | SLSTHIFLSSGLSLTFKKRS | inactive
18 | SRNIMLGWVPWYYCWKAPSI | 0.034 ± 0.63
19 | TNSYANMSGTAGNYRSYNIA | -0.522 ± 0.63
20 | ICFGGTLSWSCVVAILNLSN | 5.616 ± 0.027
21 | VTGNTSRLISRPGANPNCMG | -0.03 ± 0.56

Row | Substance | amyloid nucleation score
22 | QSMTTQNLGVWEELCKAFLI | inactive
23 | TNTCFFSNGGRTSKWHPVLV | 0.135 ± 0.56
24 | MNRPVHSDYVYSFSLEFVVV | -0.089 ± 1.1
25 | VLYPMLNGGFMESLN | inactive
26 | MAESELQICMFYTMGCWDMV | -0.165 ± 0.42
27 | SDMTNS | -1.55 ± 0.64
28 | YQDSKRE | -0.833 ± 1.1
29 | TLWVDRVREMC | -0.809 ± 0.36
30 | FNYYLCTPIKVGTCPCVDFR | 7.17 ± 0.075
31 | CDQYHSQPWMLKTQIRLMTA | 1.27 ± 0.3
32 | EWILTELYHWFNFFYCRDGV | -1.2 ± 1.1
33 | NPALNRLMDGVNRFPLKCYV | -0.338 ± 0.23
34 | GCVRIMPCVFGSVRWHWYVW | 1.28 ± 0.25
35 | RATISLVDMEFSLRDPQ | inactive
36 | FFGGNCKVK | -0.146 ± 0.32
37 | LHTLVALINACRNASGSVHD | 0.167 ± 0.65
38 | VIVKAVVDIIGSN | 0.147 ± 0.76
39 | VMFYRRYYFKSMANLVDTFR | -0.932 ± 0.48
40 | VFPQLCDVSLE | -0.476 ± 1.1
41 | YSSFIDNHFAVRR | -0.448 ± 0.49
42 | QSNVCKIGSGVDESGNNMTL | 0.532 ± 0.37

Row | Substance | amyloid nucleation score
43 | HGTATCVAILMNRL | 6.35 ± 0.077
44 | LRKHFWLGCEGAWLVFG | 4.81 ± 0.08
45 | NGFYSGDFWEADGTRLDVTC | 0.053 ± 0.79
46 | FEKEWYSGLCFARAVARGMR | 2.97 ± 0.17
47 | LMAKQFIPGTYTLRGSSFHG | -0.677 ± 0.3
48 | TLYQCEEDMSGYDNVNDLAY | -0.331 ± 0.27
49 | LLFINGHAMTGAVYTITKLT | -0.302 ± 0.36
50 | DSGLMSFVCNVDPKCVCFVN | 7.968 ± 0.075
51 | ANMTSHEFRWKSN | -0.168 ± 1.1
52 | STQLDSKILINLRFFRMSIV | -0.081 ± 1.1
53 | HMSTVLLAVAFIALNFPSVE | -0.373 ± 1
54 | IRESGVYTNLYSVVRVEEKT | 0.012 ± 0.38
55 | GPSLDLDNVDYIGDSTTYQL | inactive
56 | MAACCHKLWLTCFDTVRMFN | -0.478 ± 0.41
57 | NEIFGTVIC | -1.12 ± 1
58 | ELVRDGYTPFLFLILETVVM | -0.202 ± 0.49
59 | NDSMDHRQSYWGLNPFVYIV | 0.158 ± 0.65
60 | FYCIARERLRMVNFT | -0.845 ± 0.62
61 | GGRRCGFITIRETNRTLLAL | -0.28 ± 0.55
62 | SVCFFVLFYIYSYCRHVMKW | inactive
63 | SEEIGLT | 0.426 ± 0.26

Reference: the supplement of paper PMC12042874
